How the values were obtained:
[1] = target: T1, TNFR2 (on Kym-1 cells) (UniProt P20333 23-461, limits assumed); assay: cell-based or functional assay
T1 sequence (looked up): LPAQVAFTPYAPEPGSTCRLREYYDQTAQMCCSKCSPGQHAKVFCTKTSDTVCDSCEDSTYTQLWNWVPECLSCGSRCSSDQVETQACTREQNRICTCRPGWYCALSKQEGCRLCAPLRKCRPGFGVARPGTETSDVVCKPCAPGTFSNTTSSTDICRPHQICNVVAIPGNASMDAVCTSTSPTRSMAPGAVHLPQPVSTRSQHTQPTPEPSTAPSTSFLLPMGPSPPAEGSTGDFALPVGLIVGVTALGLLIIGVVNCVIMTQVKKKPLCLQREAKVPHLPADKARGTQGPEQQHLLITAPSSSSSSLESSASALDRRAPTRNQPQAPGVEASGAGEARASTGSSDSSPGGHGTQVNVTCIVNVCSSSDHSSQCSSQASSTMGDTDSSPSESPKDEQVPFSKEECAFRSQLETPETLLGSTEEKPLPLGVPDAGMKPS

[2] = target: T2, TNFR1-Fc fusion protein (UniProt P19438 29-197); assay: ELISA, coated TNFR1-Fc, anti-human Fab-HRP
T2 construct: range 29-197; Coated antigen in ELISA; not shown: Fc part of the fusion, not described
T2 sequence (looked up): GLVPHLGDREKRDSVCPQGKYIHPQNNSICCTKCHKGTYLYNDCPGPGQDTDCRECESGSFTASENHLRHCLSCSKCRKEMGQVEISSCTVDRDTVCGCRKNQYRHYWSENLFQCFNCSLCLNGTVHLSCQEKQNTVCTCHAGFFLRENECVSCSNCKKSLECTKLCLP

[3] = target: T3, TNFR2-Fc (Enbrel) fusion protein (UniProt P20333 23-257); assay: ELISA, coated TNFR2-Fc (Enbrel), anti-human Fab-HRP
T3 construct: extracellular domain; Commercial product (Enbrel) used as coated antigen
T3 sequence (looked up): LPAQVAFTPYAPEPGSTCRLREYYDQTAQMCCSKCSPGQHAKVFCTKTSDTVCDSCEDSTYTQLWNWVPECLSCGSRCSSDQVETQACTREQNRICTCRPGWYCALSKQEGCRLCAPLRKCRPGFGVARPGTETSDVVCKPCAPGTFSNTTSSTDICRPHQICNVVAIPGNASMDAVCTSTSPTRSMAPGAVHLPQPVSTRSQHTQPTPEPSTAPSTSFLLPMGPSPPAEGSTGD

fold increase of bioactivity against the bivalent antibody [1]: ~500 fold | binding result [2]: no binding | EC50 [3]: 0.7 nM
B1: DbTNFR2xTNFR2-Ig (antibody, human IgG1, kappa)
heavy: QVQLQQSGAEVKKPGSAVKVSCKASGGTFSSYAISWVRQAPGQGLEWMGRIIPILGIANYAQKFQGRVTITADKSTSTAYMELSSLRSEDTAVYYCARDGLGDAFDIWGQGTMVTVSSGGGGSQSALTQPRSVSGSPGQSITISCTGTSSDVGGYNYVSWYQQHPGKAPKLMIYDVSNRPSGVSNRFSGSKSGNTASLTISGLQAEDEADYYCSSYTSSSTLVVFGGGTKLTVLASTKGPSVFPLAPSSKSTSGGTAALGCLVKDYFPEPVTVSWNSGALTSGVHTFPAVLQSSGLYSLSSVVTVPSSSLGTQTYICNVNHKPSNTKVDKKVEPKSCDKTHTCPPCPAPPVAGPSVFLFPPKPKDTLMISRTPEVTCVVVDVSHEDPEVKFNWYVDGVEVHNAKTKPREEQYNSTYRVVSVLTVLHQDWLNGKEYKCKVSNKGLPSSIEKTISKAKGQPREPQVYTLPPSRDELTKNQVSLTCLVKGFYPSDIAVEWESNGQPENNYKTTPPVLDSDGSFFLYSKLTVDKSRWQQGNVFSCSVMHEALHNHYTQKSLSLSPGK
light: QVQLQQSGAEVKKPGSAVKVSCKASGGTFSSYAISWVRQAPGQGLEWMGRIIPILGIANYAQKFQGRVTITADKSTSTAYMELSSLRSEDTAVYYCARDGLGDAFDIWGQGTMVTVSSGGGGSQSALTQPRSVSGSPGQSITISCTGTSSDVGGYNYVSWYQQHPGKAPKLMIYDVSNRPSGVSNRFSGSKSGNTASLTISGLQAEDEADYYCSSYTSSSTLVVFGGGTKLTVLRTVAAPSVFIFPPSDEQLKSGTASVVCLLNNFYPREAKVQWKVDNALQSGNSQESVTEQDSKDSTYSLSSTLTLSKADYEKHKVYACEVTHQGLSSPVTKSFNRGEC
notes: variable domains originate from IgG15
EC50 of cell death induction, Kym-1 cells, MTT assay after 24 hours [1]: ~0.056 nM

Source: patent US20210002376A1 (UNIVERSIT T STUTTGART, published 2021)
